Experimental findings from IntAct's records for PubMed 22321644 are described below.

First the molecules themselves.
B1: Staphylokinase (Staphylococcus aureus (strain N315)), Q99SU7 (parent)
chain: MLKRSLLFLTVLLLLFSFSSITNEVSASSSFDKGKYKKGDDASYFEPTGPYLMVNVTGVDSKGNELLSPHYVEFPIKPGTTLTKEKIEYYVEWALDATAYKEFRVVELDPSAKIEVTYYDKNKKKEETKSFPITEKGFVVPDLSEHIKNPGFNLITKVVIEKK

The variants in the first experiment derive from B1. The following applies: with plmn_human PLG.
With V72Y, the “effect of a mutation on the interaction” value is reported as “decreasing interaction”.

The variants in a further experiment derive from B1. The note with it: with plmn_human PLG. The source holds these as a separate data set.
Take V72A: the “effect of a mutation on the interaction” value is recorded as “disrupting interaction”.

Another experiment covers variants of B1. The following applies: with plmn_human PLG. This is another data set of the same source.
As for V72A, the “effect of a mutation on the interaction” value was “decreasing interaction”.

Variants of B1 are the subject of another experiment. The following applies: with plmn_human PLG. The source holds these as a separate data set.
With V72F, the “effect of a mutation on the interaction” value is “decreasing interaction”.
Y71F: the “effect of a mutation on the interaction” value was “decreasing interaction”.

Variants of B1 are the subject of the next experiment. The note with it: with plmn_human PLG. This is another data set of the same source.
For P69L, the “effect of a mutation on the interaction” value is “disrupting interaction”.

The variants in the next experiment derive from B1. The following applies: with plmn_human PLG. The source holds these as a separate data set.
Consider P69L, for which the “effect of a mutation on the interaction” value is “decreasing interaction”.
